Measured values published in the supplement of paper PMC7125110.
± gives the standard error. For some assays here: This sample holds only a part of the variants without activity.

B1: glmS ribozyme (parent)
chain: AUAAAAGCGCCAGAACUACAGAAAUGUAGUUGACGAGGAGGAGGUUUAUCGAAUUUUCGGCGGAUGCCUCCAAA

Tests used:
Conditions in all cases: with glucosamine-6-phosphate
glucosamine-6-phosphate [1] = variants of: B1; assay: kcat; higher = faster cleavage; RNA array
How it was run: (§1)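 Over ~14 h at 37 °C, tiles were imaged as glucosamine-6-phosphate (40 μM to 10 mM) in HEPES/KCl/Mg(OAc)2 buffer flowed across sequenced MiSeq chips. The chips carried barcoded ribozyme variants transcribed in situ by E. coli RNA polymerase and tracked with a hybridised Cy3 probe. After normalisation to baseline and to non-cleaving reference variants, one- or two-exponential decay fits of per-tile medians gave kobs. kcat and KM followed from weighted Michaelis–Menten fits across concentrations.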

glucosamine-6-phosphate [2] = variants of: B1; assay: KM; higher = weaker cofactor use; RNA array
How it was run: as §1

glucosamine-6-phosphate [3] = variants of: B1; assay: self-cleavage kobs at 640 uM GlcN6P; higher = faster cleavage; RNA array
How it was run: as §1

glucosamine-6-phosphate [4] = variants of: B1; assay: self-cleavage kobs at 2500 uM GlcN6P; higher = faster cleavage; RNA array
How it was run: as §1

glucosamine-6-phosphate [5] = variants of: B1; assay: self-cleavage kobs at 10000 uM GlcN6P; higher = faster cleavage; RNA array
How it was run: as §1

glucosamine-6-phosphate [6] = variants of: B1; assay: self-cleavage kobs at 40 uM GlcN6P; higher = faster cleavage; RNA array
How it was run: as §1

glucosamine-6-phosphate [7] = variants of: B1; assay: self-cleavage kobs at 160 uM GlcN6P; higher = faster cleavage; RNA array
How it was run: as §1

Variant	kcat (glucosamine-6-phosphate [1])	KM (glucosamine-6-phosphate [2])	self-cleavage kobs at 640 uM GlcN6P (glucosamine-6-phosphate [3])	self-cleavage kobs at 2500 uM GlcN6P (glucosamine-6-phosphate [4])	self-cleavage kobs at 10000 uM GlcN6P (glucosamine-6-phosphate [5])	self-cleavage kobs at 40 uM GlcN6P (glucosamine-6-phosphate [6])	self-cleavage kobs at 160 uM GlcN6P (glucosamine-6-phosphate [7])
C11A C16U	0.000159 ± 1.5e-05 s⁻¹	1110 ± 340 µM	6.65e-05 ± 1.5e-05 s⁻¹	9.79e-05 ± 1.5e-05 s⁻¹	0.000151 ± 1.8e-05 s⁻¹	–	–
C10U G29A	< 1e-05 s⁻¹	–	–	–	< 1e-05 s⁻¹	< 1e-05 s⁻¹	–
C10U G29C	1.05e-05 ± 2.4e-06 s⁻¹	–	–	–	–	–	–
G9C C61G	0.00838 ± 0.0021 s⁻¹	4330 ± 1400 µM	0.000828 ± 0.00017 s⁻¹	0.00371 ± 0.00066 s⁻¹	0.00575 ± 0.00085 s⁻¹	9.12e-05 ± 1.6e-05 s⁻¹	0.000309 ± 5.7e-05 s⁻¹
C11A C68G	< 1e-05 s⁻¹	–	–	–	–	–	–
A6G U69A	< 1e-05 s⁻¹	–	–	–	< 1e-05 s⁻¹	–	< 1e-05 s⁻¹
G9U A39U C61A	0.000456 ± 2.3e-05 s⁻¹	503 ± 58 µM	0.000243 ± 6.2e-05 s⁻¹	0.000376 ± 0.00013 s⁻¹	0.00046 ± 0.00017 s⁻¹	–	0.000118 ± 4.8e-05 s⁻¹
C8U G35A U45A U69G	1.02e-05 ± 2.7e-06 s⁻¹	–	–	–	–	–	–
C8G A15U U55C G60A	< 1e-05 s⁻¹	–	–	–	< 1e-05 s⁻¹	–	–
C11A G29A	3.97e-05 ± 1.6e-06 s⁻¹	2550 ± 350 µM	–	–	3.17e-05 ± 9.4e-06 s⁻¹	–	–
A6U U54G	0.000293 ± 3e-05 s⁻¹	3960 ± 740 µM	3.62e-05 ± 8.4e-06 s⁻¹	0.000122 ± 1.5e-05 s⁻¹	0.000204 ± 2.5e-05 s⁻¹	–	–
C11A G62A	1.14e-05 ± 2e-06 s⁻¹	–	–	–	–	–	–
C10G G59U	3.49e-05 ± 2.3e-06 s⁻¹	1050 ± 290 µM	–	2.34e-05 ± 6.6e-06 s⁻¹	3.25e-05 ± 8.1e-06 s⁻¹	< 1e-05 s⁻¹	–
C11A A12U U45G U55A C70U	0.00104 ± 0.00013 s⁻¹	–	–	7.5e-05 ± 3.1e-05 s⁻¹	0.000245 ± 5.6e-05 s⁻¹	–	–
C10U A52U C68G	0.000101 ± 4.6e-05 s⁻¹	–	–	6.27e-05 ± 2.5e-05 s⁻¹	–	–	–
A6U U49A C71G	3.45e-05 ± 8.5e-06 s⁻¹	–	–	–	–	–	–
A6U G60A	< 1e-05 s⁻¹	–	< 1e-05 s⁻¹	–	–	–	–
A6U A23C U30G	5.38e-05 ± 1.9e-06 s⁻¹	2780 ± 300 µM	–	–	4.19e-05 ± 1.6e-05 s⁻¹	–	–
C11A C61U C67G	< 1e-05 s⁻¹	–	–	–	–	–	–
C10A G51U	< 1e-05 s⁻¹	–	–	–	< 1e-05 s⁻¹	< 1e-05 s⁻¹	–
C10U U56A	2.68e-05 ± 5.7e-06 s⁻¹	–	–	3.47e-05 ± 1.4e-05 s⁻¹	–	< 1e-05 s⁻¹	–
A6G U31G	0.000452 ± 9.7e-05 s⁻¹	4990 ± 1600 µM	4.67e-05 ± 9.4e-06 s⁻¹	0.000183 ± 3.2e-05 s⁻¹	0.000281 ± 5.8e-05 s⁻¹	–	–

Variant	kcat (glucosamine-6-phosphate [1])	KM (glucosamine-6-phosphate [2])	self-cleavage kobs at 640 uM GlcN6P (glucosamine-6-phosphate [3])	self-cleavage kobs at 2500 uM GlcN6P (glucosamine-6-phosphate [4])	self-cleavage kobs at 10000 uM GlcN6P (glucosamine-6-phosphate [5])	self-cleavage kobs at 40 uM GlcN6P (glucosamine-6-phosphate [6])	self-cleavage kobs at 160 uM GlcN6P (glucosamine-6-phosphate [7])
A6C C10U C67G U69A	2.09e-05 ± 8.6e-06 s⁻¹	–	–	–	–	–	–
A6U A39U C70U	6.69e-05 ± 6e-06 s⁻¹	506 ± 210 µM	3.98e-05 ± 1.7e-05 s⁻¹	4.96e-05 ± 1.8e-05 s⁻¹	6.76e-05 ± 1.9e-05 s⁻¹	–	–
A6U C16G U55A	1.73e-05 ± 5.1e-06 s⁻¹	–	–	–	–	–	–
A6U U55C	0.000167 ± 2.1e-06 s⁻¹	1250 ± 45 µM	5.6e-05 ± 1.6e-05 s⁻¹	0.000112 ± 1.5e-05 s⁻¹	0.000148 ± 2.5e-05 s⁻¹	–	–
G9U A48U C58G C67U	< 1e-05 s⁻¹	–	< 1e-05 s⁻¹	–	–	< 1e-05 s⁻¹	–
A6C U30A	< 1e-05 s⁻¹	–	–	–	–	< 1e-05 s⁻¹	< 1e-05 s⁻¹
C10U C68G	2.34e-05 ± 4.7e-06 s⁻¹	–	–	2.5e-05 ± 7.6e-06 s⁻¹	–	–	–
C10U A14G	0.000181 ± 2.4e-05 s⁻¹	2130 ± 650 µM	5.02e-05 ± 7.8e-06 s⁻¹	8.95e-05 ± 8.6e-06 s⁻¹	0.000159 ± 1.6e-05 s⁻¹	–	–
C10U A14U	< 1e-05 s⁻¹	–	–	–	–	< 1e-05 s⁻¹	–
A6U C71U	0.000302 ± 1.3e-05 s⁻¹	2710 ± 230 µM	5.53e-05 ± 9.2e-06 s⁻¹	0.000149 ± 1.7e-05 s⁻¹	0.000235 ± 2.4e-05 s⁻¹	–	–
C8U U49A	< 1e-05 s⁻¹	–	< 1e-05 s⁻¹	< 1e-05 s⁻¹	< 1e-05 s⁻¹	< 1e-05 s⁻¹	–
C10G A12U	8.15e-05 ± 3.2e-05 s⁻¹	–	–	–	–	–	–
C10U C50A	< 1e-05 s⁻¹	–	–	–	< 1e-05 s⁻¹	< 1e-05 s⁻¹	–
A6G A12C	0.000313 ± 8.2e-05 s⁻¹	–	–	6.08e-05 ± 3e-05 s⁻¹	0.000159 ± 1.7e-05 s⁻¹	–	–
C8U C10U	< 1e-05 s⁻¹	–	< 1e-05 s⁻¹	–	–	< 1e-05 s⁻¹	–
A6G U45A	0.000591 ± 0.00015 s⁻¹	–	–	0.000454 ± 0.00011 s⁻¹	0.000455 ± 8.7e-05 s⁻¹	–	–
C11A G40U	1.13e-05 ± 2e-06 s⁻¹	–	< 1e-05 s⁻¹	–	–	–	< 1e-05 s⁻¹
A6U A39U	0.000104 ± 2.7e-06 s⁻¹	2160 ± 150 µM	2.53e-05 ± 8.4e-06 s⁻¹	5.5e-05 ± 7.8e-06 s⁻¹	8.67e-05 ± 1.1e-05 s⁻¹	–	–
A6U A39G	0.000267 ± 2.8e-05 s⁻¹	5030 ± 1100 µM	–	9.44e-05 ± 1.8e-05 s⁻¹	0.000175 ± 2.6e-05 s⁻¹	–	–
G7A U31G	2.76e-05 ± 2.9e-06 s⁻¹	2490 ± 920 µM	–	–	–	–	–
A1U U2G A3G A5U	0.0105 ± 0.0015 s⁻¹	1320 ± 260 µM	0.00274 ± 0.00078 s⁻¹	0.006 ± 0.0016 s⁻¹	0.0103 ± 0.0017 s⁻¹	0.000338 ± 5.7e-05 s⁻¹	0.00116 ± 0.00022 s⁻¹
